Test results: patent publication US7067274B2, “Compositions and methods for the screening pro-apoptotic compounds” (Genentech, Inc., priority 2003, dated 2006)
Changes are numbered by the printed parent chain. Entries after “also recorded” stand apart in the source; their conditions may differ. Where two headings read alike, the source gives them in different places. Blank lines part the entries; values can stand above or below the molecule they belong to.

What was measured:
[1] = molecular target: T1, ΔCARD human caspase 9 (Homo sapiens, UniProt P55211, D305A/E304A/E306A); experiment: Determination of caspase-9 inhibitory constants (Ac-LEHD-AFC hydrolysis); format: biochemical; settings: for Ki: read-out: Caspase-9 inhibition Ki(app)
T1 construct: made in house
T1 sequence (P55211 139-315 E304A/D305A/E306A limits assumed): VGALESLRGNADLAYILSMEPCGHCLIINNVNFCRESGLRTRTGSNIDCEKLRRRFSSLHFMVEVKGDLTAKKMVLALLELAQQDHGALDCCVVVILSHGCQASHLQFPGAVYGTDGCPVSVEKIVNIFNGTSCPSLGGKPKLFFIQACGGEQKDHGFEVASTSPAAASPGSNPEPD
T1 sequence (P55211 316-416 limits assumed): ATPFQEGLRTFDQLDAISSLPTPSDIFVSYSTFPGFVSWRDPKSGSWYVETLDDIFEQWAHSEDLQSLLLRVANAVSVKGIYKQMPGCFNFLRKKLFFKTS
Method: ΔCARD (caspase recruitment domain) human caspase 9 (lacking the first 138 residues) with Ala substitutions at residues 304 to 306 was produced as described previously (Boatright et al., (2003) Mol Cell 11: 529–541). The third BIR of […] (residues 252–348) was also prepared as described previously (Sun et al., (2000) J Biol Chem 275(43): 33777–81).
Determination of Caspase-9 Inhibitory Constants: Recombinant ΔCARD caspase 9 (300 nM final concentration in the assay) was preactivated in salt-free caspase buffer (20 mM PIPES, 10 mM EDTA, 0.1% CHAPS and 10% (w/v) sucrose, pH 7.2) for 15 min at 37° C. Following this, a range of inhibitor concentrations were preincubated with the enzyme for 20 min at 37° C. The assay was started by the addition of Ac-LEHD-AFC (100 μM final concentration) and measured kinetically for 30 min using an fmax Fluorescence Plate Reader (Molecular Devices) at an excitation wavelength of 405 nm and an emission wavelength of 510 nm. Reaction mixtures were thermostatically controlled at 37° C. The individual Ki values for the inhibitors [I] were determined from the uninhibited substrate hydrolysis rate (vo) and the inhibited rates (vi), so that a plot of (vo/vi)−1 against [I] gives Ki(app), the equilibrium inhibition constant in the presence of substrate (Salvesen and Nagase, (1989) Proteolytic enzymes: A practical approach. R. J. Beynon and J. S. Bond. Oxford, IRL Press: 83–104).

[2] = molecular target: wild-type mature Smac protein; experiment: Fluorescence polarization competition assay, mature Smac protein; format: binding, human; settings: competition with 5 nM Hid-FAM probe, Ki from IC50
Method: A PCR product containing amino acids 56–239 of Smac/DIABLO (accession number SMAC_HUMAN) was cloned into the XbaI/XhoI sites of a pet21b+ (Novagen) generating a C-terminal His6 fusion. Pet21bSmac was transformed into Escherichia coli strain BL21(DE3) competent cells (Stratagene). Overnight cultures were diluted 1:100 and grown at 37° C. in LB media with 50 μg/ml carbenicillin to an A600 of 0.8 with vigorous shaking. Isopropyl-β-D-1-thiogalactopyranoside (IPTG) was added to a final concentration of 1 mM and cultures were grown overnight at 16° C. Cell pellets were resuspended in Buffer A (50 mM Tris (pH 8.0), 300 mM NaCl, 0.5 mM PMSF, 2 mM benzamidine, 5 mM β-mercaptoethanol) with 5 mM imidazole and placed on ice for 30 minutes. Cells were homogenized, microfluidized, and centrifuged at 15,000 rpm for 45 minutes. Supernatant was loaded onto a Ni-NTA agarose column (Qiagen™), washed with 10 column volumes Buffer A with 10 mM imidazole, and eluted with 10 column volumes Buffer A with 300 mM imidazole. Fractions containing Smac protein were pooled, concentrated and loaded on a Superdex™ 200 sizing column. Protein eluted over one column volume into 50 mM Tris (pH 7.6), 300 mM NaCl, 0.5 mM PMSF, 2 mM benzamidine and 5 mM DTT. Fractions containing Smac protein were pooled and dialyzed against 3 changes of buffer containing 50 mM Tris (pH 7.6), 0.5 mM PMSF, 2 mM benzamidine and 5 mM DTT. The dialyzed sample was loaded onto a Q-Sepharose™ FF column (Pharmacia) and eluted over a 10 column volume gradient from zero to 1 M NaCl in buffer 50 mM Tris (pH 7.6), 0.5 mM PMSF, 2 mM benzamidine and 5 mM DTT. The cDNA encoding full-length ML-IAP plus a N-terminal His6-tag was cloned into the pET15b(+) expression vector (Novagen). ML-IAP was expressed in E. coli strain BL21(DE3)pLysS. […] The protein concentration of purified proteins was determined from the absorbance at 280 nm based on the molar absorption coefficients calculated from the Edelhoch relationship (Edelhoch, (1967) Biochemistry 6: 1948–1954).
Samples were read after a 10-minute incubation. Fluorescence polarization values were plotted as a function of the antagonist concentration, and the IC50 values were obtained by fitting the data to a 4-parameter equation using Kaleidagraph™ software (Synergy software; Reading, Pa.). Inhibition constants (Ki) for the antagonists were determined from the IC50 values (Keating et al., (2000) Putting the pieces together: contribution of fluorescence polarization assays to small-molecule lead optimization. Proceedings of SPIE: In-Vitro Diagnostic Instrumentation.).
(§1) The binding affinity of the Hid-FAM probe for each of the BIR domains was determined directly using a fluorescence polarization-based assay and the result is shown graphically in FIG. 8.

[3] = tested on: MCF7 cells; experiment: Inhibition of doxorubicin-induced apoptosis in transfected MCF7 cells; format: cell-based; settings: MCF7 cells transiently transfected, doxorubicin 0.5 μg/ml
Method: MCF7 cells were transiently transfected with the reporter plasmid pCMV-βgal and either vector control alone or BIR domain constructs. Following transfection, cells were exposed to doxorubicin (adriamycin; 0.5 μg/ml), stained with X-gal and apoptosis assessed by counting live and dead transfected cells. Percentage apoptosis represents the mean value of at least four sample points and is representative of three independent experiments.

[4] = molecular target: Hid-FAM (5-carboxyflourescein-conjugated AVPFAK(5-FAM)K); experiment: Fluorescence polarization affinity measurement with Hid-FAM probe; format: binding; settings: 5 nM Hid-FAM, apparent Kd from EC50
Method: Polarization experiments were performed on an Analyst™ HT 96-384 (Molecular Devices Corp.). […] The reactions were read after an incubation time of 10 minutes at room temperature with standard cut-off filters for the fluorescein fluorophore (λex=485 nm; λem=530 nm) in 96-well black HE96 plates (Molecular Devices Corp.). Fluorescence polarization values were plotted as a function of the protein concentration, and the EC50 values were obtained by fitting the data to a 4-parameter equation using Kaleidagraph™ software (Synergy software, Reading, Pa.). The apparent Kd values were determined from the EC50 values.
as §1

[5] = molecular target: T2, caspase-9 (Homo sapiens, UniProt P55211); settings: literature; read-out: inhibition constant, caspase-9; cited from earlier work
T2 sequence (P55211 1-416): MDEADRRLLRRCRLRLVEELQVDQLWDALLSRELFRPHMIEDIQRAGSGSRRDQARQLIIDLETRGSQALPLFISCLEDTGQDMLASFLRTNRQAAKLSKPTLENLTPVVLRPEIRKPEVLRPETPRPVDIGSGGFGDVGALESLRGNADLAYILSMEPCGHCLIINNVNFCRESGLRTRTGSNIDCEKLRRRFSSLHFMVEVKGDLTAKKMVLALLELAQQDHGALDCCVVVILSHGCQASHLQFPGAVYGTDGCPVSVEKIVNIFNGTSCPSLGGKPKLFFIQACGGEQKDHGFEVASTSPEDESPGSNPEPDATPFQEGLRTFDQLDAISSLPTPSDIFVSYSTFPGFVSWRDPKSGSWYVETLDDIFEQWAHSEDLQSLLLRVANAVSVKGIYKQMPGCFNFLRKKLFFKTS

[6] = 300 nM ΔCARD caspase 9, 100 μM Ac-LEHD-AFC, 37° C.

B3: MLBIR-Q: C-terminally truncated version of ML-IAP-BIR with the same number of amino acids as MLXBIR3 and MLXBIR3SG (protein)
chain: TEEEEEEGAGATLSRGPAFPGMGSEELRLASFYDWPLTAEVPPELLAAAGFFHTGHQDKVRCFFCYGGLQSWKRGDDPWTEHAKWFPSCQFLLRSKGRDFVHSVQETHSQ
modifications: left off: small tags and cut ends
Ki [1, 6]: 4600 nM | Kd [4]: 20 nM | Ki [2]: 54 nM

B4: XIAP-BIR3: third BIR domain of XIAP (residues 252–348) (protein)
chain: NSTNLPRNPSMADYEARIFTFGTWIYSVNKEQLARAGFYALGEGDKVKCFHCGGGLTDWKPSEDPWEQHAKWYPGCKYLLEQKGQEYINNIHLTHSL
modifications: left off: small tags and cut ends
Ki [1, 6]: 13 nM | Kd [4]: 105 nM | Ki [2]: 320 nM | inhibition of doxorubicin-induced apoptosis [3]: confers resistance | Ki [5]: 10 to 20 nM

B5: ML-IAP: full-length melanoma inhibitor of apoptosis protein with N-terminal His6-tag (protein)
chain: MGPKDSAKCLHRGPQPSHWAAGDGPTQERCGPRSLGSPVLGLDTCRAWDHVDGQILGQLRPLTEEEEEEGAGATLSRGPAFPGMGSEELRLASFYDWPLTAEVPPELLAAAGFFHTGHQDKVRCFFCYGGLQSWKRGDDPWTEHAKWFPSCQFLLRSKGRDFVHSVQETHSQLLGSWDPWEEPEDAAPVAPSVPASGYPELPTPRREVQSESAQEPGGVSPAEAQRAWWVLEPPGARDVEAQLRRLQEERTCKVCLDRAVSIVFVPCGHLVCAECAPGLQLCPICRAPVRSRVRTFLS
modifications: left off: small tags and cut ends
Ki [1]: 3000 to 5000 nM | fold lower potency for inhibition of caspase-9 activity relative to XIAP ([1]; relative to XIAP): ~300 fold

Now from value to molecule, other results behind:

Ki [1, 6]: < 1 nM | Ki [2]: 59 nM
B1: MLXBIR3SG: MLXBIR3 chimera with Ser 150 of ML-IAP-BIR mutated to Gly (SEQ ID NO:2) (protein)
chain: MGSSHHHHHHSSGLVPRGSHMLETEEEEEEGAGATLSRGPAFPGMGSEELRLASFYDWPLTAEVPPELLAAAGFFHTGHQDKVRCFFCYGGLQSWKRGDDPWTEHAKWFPGCQFLLRSKGQEYINNIHLTHSL
modifications: Homo sapien
inhibition of doxorubicin-induced apoptosis [3]: significantly more efficient; also recorded: confers resistance

Ki [1, 6]: 962 nM | fold less potent at inhibiting caspase-9 than XIAP-BIR3 ([1]; relative to XIAP-BIR3): ~70 fold | fold better at inhibiting caspase-9 than MLBIR-Q ([1]; relative to wild-type ML-IAP-BIR construct of the same length): ~5 fold | Kd [4]: 21 nM
B2: MLXBIR3: ML-IAP-BIR in which amino acids 160–179 were replaced with amino acids 336–348 of XIAP-BIR3 (protein)
chain: B3 chain with R98Q, D99E, F100Y, V101I, H102N, S103N, V104I, Q105H, E106L, Q110L
modifications: left off: small tags and cut ends
inhibition of doxorubicin-induced apoptosis [3]: confers resistance
